No end group written: not given here.
Experiments:
Assay in all cases: ELISA, biotinylated 12-mer peptide on streptavidin, 2 ug/mL FLAG-tagged VHH, anti-FLAG-HRP
[1] = molecular target: T1, … (human)
T1 sequence (peptide, C-terminally conjugated to biotin): LLDFNQTQPERG

[2] = molecular target: T2, NPFDLLDFNQTQ (human)
T2 peptide: NPFDLLDFNQTQ-biotin
Method: (§1) To determine whether the binding epitope of the anti-FX VHH polypeptide designated “cmpd #1” are located inside the activation peptide (AP) of human FX (SEQ ID NO:2), an ELISA assay was setup. 41 unique 12-mer peptide fragments spanning the 52 residues of the activation peptide with one amino acid spacing were immobilized in microtiter plate wells followed by incubation with the VHH polypeptide to be tested, and detection of bound ligand was performed by addition of a secondary HRP-labelled antibody.
(§2) The peptides were C-terminally conjugated to biotin and 50 μL of 1 μg/mL peptide solution was used for immobilization in discrete wells of the microtiter plate which was pre-coated with 1 μg/mL streptavidin. Each well was washed with washing buffer (10 mM Tris, 150 mM NaCl, 2.5 mM CaCl₂), 0.05% Tween 20, pH 8.60) followed by addition of 50 μL of 2 μg/mL FLAG-tagged anti-FX VHH polypeptide or IgG antibody to be tested. After 1 hour non-bound VHH polypeptide was washed off using washing buffer.
(§3) Bound anti-FX activation peptide ligand was detected by first binding a HRP-labelled secondary antibody (for FLAG-tagged VHH polypeptide: Anti-FLAG mAb M2-Peroxidase (HRP) (Sigma Aldrich, US) for 1 hour, and then adding 100 μL TMB-1 ELISA substrate (Kem-En-Tec Diagnostics, Denmark).

[3] = molecular target: T3, DFNQTQPERGDN (human)
T3 peptide: DFNQTQPERGDN-biotin
Method: as §1, §2, §3

[4] = molecular target: T4, ADLDPTENPFDL (human)
T4 peptide: ADLDPTENPFDL-biotin
Method: as §1, §2, §3

[5] = molecular target: T5, SITWKPYDAADL (human)
T5 peptide: SITWKPYDAADL-biotin
Method: as §1, §2, §3

[6] = molecular target: T6, PDSITWKPYDAA (human)
T6 peptide: PDSITWKPYDAA-biotin
Method: as §1, §2, §3

[7] = molecular target: T7, PYDAADLDPTEN (human)
T7 peptide: PYDAADLDPTEN-biotin
Method: as §1, §2, §3

[8] = molecular target: T8, TENPFDLLDFNQ (human)
T8 peptide: TENPFDLLDFNQ-biotin
Method: as §1, §2, §3

[9] = molecular target: T9, PFDLLDFNQTQP (human)
T9 peptide: PFDLLDFNQTQP-biotin
Method: as §1, §2, §3

[10] = molecular target: T10, LDFNQTQPERGD (human)
T10 peptide: LDFNQTQPERGD-biotin
Method: as §1, §2, §3

[11] = molecular target: T11, TQPERGDNNLTR (human)
T11 peptide: TQPERGDNNLTR-biotin
Method: as §1, §2, §3

[12] = molecular target: T12, ATSSSGEAPDSI (human)
T12 peptide: ATSSSGEAPDSI-biotin
Method: as §1, §2, §3

[13] = molecular target: T13, GEAPDSITWKPY (human)
T13 peptide: GEAPDSITWKPY-biotin
Method: as §1, §2, §3

[14] = molecular target: T14, APDSITWKPYDA (human)
T14 peptide: APDSITWKPYDA-biotin
Method: as §1, §2, §3

[15] = molecular target: T15, ITWKPYDAADLD (human)
T15 peptide: ITWKPYDAADLD-biotin
Method: as §1, §2, §3

[16] = molecular target: T16, WKPYDAADLDPT (human)
T16 peptide: WKPYDAADLDPT-biotin
Method: as §1, §2, §3

[17] = molecular target: T17, LDPTENPFDLLD (human)
T17 peptide: LDPTENPFDLLD-biotin
Method: as §1, §2, §3

[18] = molecular target: T18, SGEAPDSITWKP (human)
T18 peptide: SGEAPDSITWKP-biotin
Method: as §1, §2, §3

[19] = molecular target: T19, AQATSSSGEAPD (human)
T19 peptide: AQATSSSGEAPD-biotin
Method: as §1, §2, §3

[20] = molecular target: T20, QATSSSGEAPDS (human)
T20 peptide: QATSSSGEAPDS-biotin
Method: as §1, §2, §3

[21] = molecular target: T21, FNQTQPERGDNN (human)
T21 peptide: FNQTQPERGDNN-biotin
Method: as §1, §2, §3

[22] = molecular target: T22, AADLDPTENPFD (human)
T22 peptide: AADLDPTENPFD-biotin
Method: as §1, §2, §3

[23] = molecular target: T23, FDLLDFNQTQPE (human)
T23 peptide: FDLLDFNQTQPE-biotin
Method: as §1, §2, §3

B1: Cmpd #1 (monovalent anti-FX VHH polypeptide, VHH-1.1) (VHH)
VHH: EVQLVESGGGLVQPGGSLRLSCAASGSIGAFDAMGWYRQAPGKQRELVAGIMVSRGNTNYTDSVKGRFTISRDNAKNTVYLQMNSLKPEDTAVYYCKAVKRPGPGYLEVWGQGTLVTVSS
notes: No protractor
[1]
  ELISA signal normalized relative to the background signal (relative to background): 1.88
[2]
  ELISA signal normalized relative to the background signal: 3.13 relative to background
[3]
  ELISA signal normalized relative to the background signal: 0.94 relative to background
[4]
  ELISA signal normalized relative to the background signal: 0.91 relative to background
[5]
  ELISA signal normalized relative to the background signal: 1.08 relative to background
[6]
  ELISA signal normalized relative to the background signal: 1.05 relative to background
[7]
  ELISA signal normalized relative to the background signal: 0.83 relative to background
[8]
  ELISA signal normalized relative to the background signal: 4.84 relative to background
[9]
  ELISA signal normalized relative to the background signal: 4.95 relative to background
[10]
  ELISA signal normalized relative to the background signal: 0.97 relative to background
[11]
  ELISA signal normalized relative to the background signal: 1.05 relative to background
[12]
  ELISA signal normalized relative to the background signal: 0.98 relative to background
[13]
  ELISA signal normalized relative to the background signal: 0.93 relative to background
[14]
  ELISA signal normalized relative to the background signal: 1.06 relative to background
[15]
  ELISA signal normalized relative to the background signal: 1.1 relative to background
[16]
  ELISA signal normalized relative to the background signal: 0.89 relative to background
[17]
  ELISA signal normalized relative to the background signal: 1.11 relative to background
[18]
  ELISA signal normalized relative to the background signal: 0.88 relative to background
[19]
  ELISA signal normalized relative to the background signal: 0.97 relative to background
[20]
  ELISA signal normalized relative to the background signal: 0.96 relative to background
[21]
  ELISA signal normalized relative to the background signal: 1 relative to background
[22]
  ELISA signal normalized relative to the background signal: 0.88 relative to background
[23]
  ELISA signal normalized relative to the background signal: 4.38 relative to background

Reference: patent publication US20240067944A1 (published 2024)
